From publication PMC9864772

Tested on: PTB1 (polypyrimidine-tract-binding protein isoform 1)
Assay: filter binding

EMCV 5'UTR RNA showed a Kd of 127 nM.
HCV 5'UTR RNA gave a Kd of 242 nM.
